Laboratory results as given in PMC10980349 (The Plant Cell, 2023).

B1: full-length SPR2 (SEC-MALS sample) (natural protein, Arabidopsis thaliana, UniProt Q9T041 1-864, looked up)
chain: MSTPTTSGSAAKPTRPARSSSLATRSCSNSGSLTSFQAMVELKQKILTSISKLADRDTYQIAVEDLEKTIQSLTPETLPMFLNCLYDSCSDPKPAVKKECLHLLSYVCSLHCDSTAAHLTKIIAQIVKRLKDSDSGVRDACRDTIGALSGIYLKGKEEGTNTGSASLAVGLFVKPLFEAMGEQNKVVQSGASMCMARMVESAASPPVTSFQKLCPRICKLLSNSSFLAKASLLPVVSSLSQVGAIAPQSLESLLESIHDCLGSTDWVTRKAAAETLTALASHSSGLIKEKTDSTITVLETCRFDKIKPVRESVTEALQLWKKISGKYVDGASDDSKLSASEQLGSEKNGEKRSNLADLMKKEASDGSTLSPDSASKGKGCFPEKAVGLLKKKAPVLSDKDFNPEFFQRLERRQSVEVVVPRRCKNNDEEESGLDDLNAMGSSNRLKNTQADDKQVKGRFDGNGSQARTSGDDKAGVVNGKETPGHHAPVSNTDNQSEGSFTSNRGNWSAIQRQLLQLERQQTNLMNMLQEFIGGSHDSMVTLEGRVRGLERIVEDMARDLSISSGRRANLTAGFGKYNSFANYPTGKYNGRAPGERGSQTDGAMRGRMWNSDMADDWFIPPHAASRNGQAGPRRSPRSEQYENEHMGNGRRGWDNKASGTIRFGEGPSARSVWQASKDEATLEAIRVAGEDGAVPRPTRVAVAPEAEAMGDDDNEGQERDPIWVSWSNAMHSLRVGDIDAAYAEVLCAGDQHLVIKLMDKTGPSLDQMSNEIANEALNFISQFLLDHSLYDICLSWSQQLLELVLQDGADTFGVPMELKTEILYNLQDACSTMDPPEDWEGPAPEQLVVQLASVWEIDLQQFDK
B2: SPR2(1 to 500)-GFP (domain or fragment)
chain: MSTPTTSGSAAKPTRPARSSSLATRSCSNSGSLTSFQAMVELKQKILTSISKLADRDTYQIAVEDLEKTIQSLTPETLPMFLNCLYDSCSDPKPAVKKECLHLLSYVCSLHCDSTAAHLTKIIAQIVKRLKDSDSGVRDACRDTIGALSGIYLKGKEEGTNTGSASLAVGLFVKPLFEAMGEQNKVVQSGASMCMARMVESAASPPVTSFQKLCPRICKLLSNSSFLAKASLLPVVSSLSQVGAIAPQSLESLLESIHDCLGSTDWVTRKAAAETLTALASHSSGLIKEKTDSTITVLETCRFDKIKPVRESVTEALQLWKKISGKYVDGASDDSKLSASEQLGSEKNGEKRSNLADLMKKEASDGSTLSPDSASKGKGCFPEKAVGLLKKKAPVLSDKDFNPEFFQRLERRQSVEVVVPRRCKNNDEEESGLDDLNAMGSSNRLKNTQADDKQVKGRFDGNGSQARTSGDDKAGVVNGKETPGHHAPVSNTDNQSEGSF

Key:
[1] = target: the molecule itself; assay: SEC-MALS
[2] = target: microtubules assembled from porcine tubulin (porcine) (UniProt P02550); assay: co-sedimentation

Binder	stoichiometry N [1]	Kd [2]
B1	4	–
B2	–	17.4 µM
